# Experiments:
# [1] = target: T1, Activin A (homodimer of two inhibin βA subunits; R&D Systems, #338-AC) (human, UniProt P08476 311-426); test: SPR blocking: 5 nM Activin A + 0.94 nM binder over Follistatin-288 surface
# T1 construct: Bought protein; also called inhibin-βA dimer
# T1 sequence: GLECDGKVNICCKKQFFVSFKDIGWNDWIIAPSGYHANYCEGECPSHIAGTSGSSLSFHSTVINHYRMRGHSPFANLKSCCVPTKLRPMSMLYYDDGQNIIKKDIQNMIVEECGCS
# Procedure: (§1) The binding signal (RU) was measured at 150 seconds after the start of the injection, and this signal was subtracted by the measured RU value for a negative control reference surface to determine the specific binding signal.
# [2] = target: T1, Activin A (homodimer of two inhibin βA …); test: SPR blocking: 5 nM Activin A + 3.75 nM binder over hActRIIB-hFc (Control 4) surface
# Procedure: as §1
# [3] = target: T1, Activin A (homodimer of two inhibin βA …); test: SPR blocking: 5 nM Activin A + 3.75 nM binder over Follistatin-288 surface
# Procedure: as §1
# [4] = target: T1, Activin A (homodimer of two inhibin βA …); test: SPR blocking: 5 nM Activin A + 30 nM binder over hActRIIB-hFc (Control 4) surface
# Procedure: as §1
# BMP9 = target: T2, BMP9 (human, UniProt Q9UK05 320-429); test: cell-based or functional assay
# T2 sequence (looked up): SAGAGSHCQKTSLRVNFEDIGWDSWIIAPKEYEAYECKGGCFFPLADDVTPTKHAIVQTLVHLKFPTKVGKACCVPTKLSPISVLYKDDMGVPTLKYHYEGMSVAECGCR
# BMP10 = target: T3, BMP10 (human, UniProt O95393 317-424); test: cell-based or functional assay
# T3 sequence (looked up): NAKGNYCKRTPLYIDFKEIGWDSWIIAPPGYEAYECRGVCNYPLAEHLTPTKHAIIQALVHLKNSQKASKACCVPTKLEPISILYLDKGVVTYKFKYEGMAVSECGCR
# [5] = target: T1, Activin A (homodimer of two inhibin βA …); test: SPR blocking: 5 nM Activin A + 7.50 nM binder over hActRIIB-hFc (Control 4) surface
# [6] = target: T1, Activin A (homodimer of two inhibin βA …); test: SPR blocking: 5 nM Activin A + 7.50 nM binder over hActRIIA-hFc surface
# Procedure: as §1
# [7] = target: T1, Activin A (homodimer of two inhibin βA …); test: SPR blocking: 5 nM Activin A + 0.94 nM binder over hActRIIA-hFc surface
# Procedure: as §1
# [8] = target: T1, Activin A (homodimer of two inhibin βA …); test: SPR blocking: 5 nM Activin A + 1.88 nM binder over hActRIIA-hFc surface
# Procedure: as §1
# [9] = target: T1, Activin A (homodimer of two inhibin βA …); test: SPR blocking: 5 nM Activin A + 15 nM binder over hActRIIA-hFc surface
# Procedure: as §1
# [10] = target: T1, Activin A (homodimer of two inhibin βA …); test: SPR blocking: 5 nM Activin A + 30 nM binder over hActRIIA-hFc surface
# Procedure: as §1
# [11] = target: T1, Activin A (homodimer of two inhibin βA …); test: SPR blocking: 5 nM Activin A + 15 nM binder over Follistatin-288 surface
# Procedure: as §1
# [12] = target: T1, Activin A (homodimer of two inhibin βA …); test: SPR blocking: 5 nM Activin A + 0.00 nM binder over hActRIIA-hFc surface
# Procedure: as §1
# [13] = target: T1, Activin A (homodimer of two inhibin βA …); test: SPR blocking: 5 nM Activin A + 60 nM binder over hActRIIB-hFc (Control 4) surface
# Procedure: as §1
# [14] = target: T1, Activin A (homodimer of two inhibin βA …); test: SPR blocking: 5 nM Activin A + 0 nM binder over Follistatin-288 surface
# Procedure: as §1
# [15] = target: T1, Activin A (homodimer of two inhibin βA …); test: SPR blocking: 5 nM Activin A + 7.5 nM binder over Follistatin-288 surface
# Procedure: as §1
# [16] = target: T1, Activin A (homodimer of two inhibin βA …); test: SPR blocking: 5 nM Activin A + 30 nM binder over Follistatin-288 surface
# Procedure: as §1
# [17] = target: T1, Activin A (homodimer of two inhibin βA …); test: SPR blocking: 5 nM Activin A + 0.94 nM binder over hActRIIB-hFc (Control 4) surface
# [18] = target: T1, Activin A (homodimer of two inhibin βA …); test: SPR blocking: 5 nM Activin A + 1.88 nM binder over hActRIIB-hFc (Control 4) surface
# Procedure: as §1
# [19] = target: T1, Activin A (homodimer of two inhibin βA …); test: SPR blocking: 5 nM Activin A + 3.75 nM binder over hActRIIA-hFc surface
# Procedure: as §1
# [20] = target: T1, Activin A (homodimer of two inhibin βA …); test: SPR blocking: 5 nM Activin A + 0.00 nM binder over hActRIIB-hFc (Control 4) surface
# Procedure: as §1
# [21] = target: T1, Activin A (homodimer of two inhibin βA …); test: SPR blocking: 5 nM Activin A + 60 nM binder over Follistatin-288 surface
# Procedure: as §1
# [22] = target: T1, Activin A (homodimer of two inhibin βA …); test: SPR blocking: 5 nM Activin A + 15 nM binder over hActRIIB-hFc (Control 4) surface
# [23] = target: T1, Activin A (homodimer of two inhibin βA …); test: SPR blocking: 5 nM Activin A + 1.88 nM binder over Follistatin-288 surface
# Procedure: as §1
# [24] = target: T1, Activin A (homodimer of two inhibin βA …); test: SPR blocking: 5 nM Activin A + 60 nM binder over hActRIIA-hFc surface
# Procedure: as §1
binder,measurement,setting,value
"H4H10429P (antibody, human IgG4, V domains shown, H4H prefix means human IgG4 Fc) VH: QVQLVESGGGVVQPGRSLRLSCVASGFTVSSYGIHWVRQAPGKGLEWVSVIWYDGRNKDYADSVKGRFTISRDNSKNTVYLEMKGLRAEDTALYYCARDKTGDFDSWGQGTLVTVSS VL: DIQMTQSPSSLSASVGDRVTITCRASQNINSFLSWYQQKPGKAPKFLIYDASSIQSGAPSRFSGSGSGTDFTLTISSLQPEDFATYYCQQSYSSPFTFGQGTKLEIK",% bound RU w/no inhibitor,[1],97%
same,% bound RU w/no inhibitor,[2],19%
same,% bound RU w/no inhibitor,[3],20%
same,% bound RU w/no inhibitor,[4],2%
same,IC50 [M]; inhibition of 800 pM BMP9 in W-20-17/BRE-luc cells,BMP9,8.1e-09 M
same,IC50 [M]; inhibition of 4 nM BMP10 in W-20-17/BRE-luc cells,BMP10,3.5e-09 M
same,% bound RU w/no inhibitor,[5],2%
same,% bound RU w/no inhibitor,[6],1%
same,% bound RU w/no inhibitor,[7],87%
same,% bound RU w/no inhibitor,[8],66%
same,% bound RU w/no inhibitor,[9],1%
same,% bound RU w/no inhibitor,[10],1%
same,% bound RU w/no inhibitor,[11],1%
same,% bound RU w/no inhibitor,[12],100%
same,% bound RU w/no inhibitor,[13],3%
same,% bound RU w/no inhibitor,[14],100%
same,% bound RU w/no inhibitor,[15],1%
same,% bound RU w/no inhibitor,[16],2%
same,% bound RU w/no inhibitor,[17],87%
same,% bound RU w/no inhibitor,[18],67%
same,% bound RU w/no inhibitor,[19],19%
same,% bound RU w/no inhibitor,[20],100%
same,% bound RU w/no inhibitor,[21],3%
same,% bound RU w/no inhibitor,[22],2%
same,% bound RU w/no inhibitor,[23],80%
same,% bound RU w/no inhibitor,[24],1%
"H4H10436P2 (antibody, human IgG4, V domains shown, H4H prefix means human IgG4 Fc) VH: QVQLVESGGGVVQPGRSLRLTCVASGFTVSSYGMHWVRQAPGKGLEWVAVMFYDESKKYYADSVKGRFTISRDNSKNTLYLQMNSLRVEDTAVYYCARDEQLDFEYWGQGTLVTVSS VL: not shown",% bound RU w/no inhibitor,[1],78%
same,% bound RU w/no inhibitor,[2],19%
same,% bound RU w/no inhibitor,[3],16%
same,% bound RU w/no inhibitor,[4],3%
same,IC50 [M]; inhibition of 4 nM BMP10 in W-20-17/BRE-luc cells,BMP10,> 1e-07 M
same,% bound RU w/no inhibitor,[5],3%
same,% bound RU w/no inhibitor,[6],2%
same,% bound RU w/no inhibitor,[7],75%
same,% bound RU w/no inhibitor,[8],55%
same,% bound RU w/no inhibitor,[9],2%
same,% bound RU w/no inhibitor,[10],2%
same,% bound RU w/no inhibitor,[11],1%
same,% bound RU w/no inhibitor,[12],100%
same,% bound RU w/no inhibitor,[13],4%
same,% bound RU w/no inhibitor,[14],100%
same,% bound RU w/no inhibitor,[15],1%
same,% bound RU w/no inhibitor,[16],2%
same,% bound RU w/no inhibitor,[17],80%
same,% bound RU w/no inhibitor,[18],60%
same,% bound RU w/no inhibitor,[19],16%
same,% bound RU w/no inhibitor,[20],100%
same,% bound RU w/no inhibitor,[21],2%
same,% bound RU w/no inhibitor,[22],2%
same,% bound RU w/no inhibitor,[23],61%
same,% bound RU w/no inhibitor,[24],2%

# From patent US20150037339A1 (Regeneron, published 2015)
